Measurements reported in patent publication US20250195685A1 (CAPSTAN THERAPEUTICS, published 2025).
Like-named read-outs stand apart in the source and are kept apart here.

Columns and labels:
[1] = target: T1, human CD8 on cells (CD8-overexpressing HEK293T cells, SupT1, HPB-ALL, human T cells, transfected HEK293 of … (human, UniProt P01732 22-235)); assay: flow cytometry on CD8-overexpressing HEK293T cells, non-linear fit of normalized gMFI
T1 construct: whole, on cells; also called cell surface CD8
T1 sequence (P01732 22-235): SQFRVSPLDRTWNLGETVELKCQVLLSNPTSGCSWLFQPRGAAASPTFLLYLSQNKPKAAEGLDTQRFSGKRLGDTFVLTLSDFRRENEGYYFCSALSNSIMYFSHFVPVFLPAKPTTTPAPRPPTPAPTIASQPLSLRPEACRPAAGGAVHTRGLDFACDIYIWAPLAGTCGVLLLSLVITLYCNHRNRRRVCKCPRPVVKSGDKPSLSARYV
Experimental: To obtain the results shown in FIG. 3A, that determined EC₅₀ values for antigen-specific binding, CD8-overexpressing HEK293T cells were dissociated in Versine solution (PBS buffer at pH 7.4 supplemented with 0.5 mM EDTA), and 2×10⁵ total cells were transferred to a V-bottom 96 well culture plate (Corning). Cells were washed twice with Cell Staining buffer (#420201, Biolegend). Each anti-CD8α antibody with human IgG1 isotype and Fc-silencing mutations L234A, L235A and P329A was diluted in four-fold antibody titration series from 100 μg/mL to 6.1 ng/ml into Cell Staining buffer. eFluor 780 Fixable Viability dye (eBioscience) was also included during antibody solutions at a 1:4000 dilution. Cells were stained with each diluted antibody solution for 30 minutes on ice. Cells were then washed three times with Cell Staining buffer and primary antibody binding was detected by staining with anti-human Fc BV421 conjugate antibody (#410704, Biolegend) at 1:100 dilution for 30 minutes on ice. After staining with the secondary detection antibody, cells were washed three times with Cell Staining buffer, fixed in FluoroFix buffer (Biolegend) and kept at 4° C. in the dark until analysis. Flow cytometry analysis on each sample was performed on an Agilent NovoCyte flow cytometer. Flow cytometry data was analyzed by Flowjo 10 (Becton, Dickinson & Company) to measure the geometric median fluorescence intensity (gMFI) of the on-cell binding from each antibody. The gMFI values were normalized with the gMFI measured in the sample stained with only the secondary detection antibody and plotted against the concentration of the added antibodies. The binding curves were constructed using the Graphpad Prism software, and EC₅₀ values were determined by non-linear curve fitting.

[2] = target: T2, human CD8αα homodimer, recombinant protein (Acro Biosystems) (human, UniProt P01732 22-182); assay: BLI steady state, whole hIgG1-LALAPA antibody on CD8α-His (Ni-NTA sensor), 30 °C
T2 construct: also called CD8αα antigen; biotinylated CD8α recombinant protein (CDA-H82E3)
T2 sequence (P01732 22-182 limits assumed): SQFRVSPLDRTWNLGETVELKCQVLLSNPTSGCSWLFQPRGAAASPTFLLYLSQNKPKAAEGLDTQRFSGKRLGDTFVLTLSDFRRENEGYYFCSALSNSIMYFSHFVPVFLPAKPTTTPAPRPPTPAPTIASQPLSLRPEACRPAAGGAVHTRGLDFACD
Experimental: (§1) To assess affinity of whole antibodies, steady state analysis was used as the bivalent nature of both whole antibody and CD8α complicates kinetic analysis. 50 nM CD8α-His (that is, CD8α with a C-terminal oligohistidine tag; Acro) was immobilized on Ni-NTA sensor probes. Binding was analyzed with a three-fold antibody dilutions series: 60 nM, 20 nM, 6.67 nM, 2.22 nM, 0.74 nM, and 0.25 nM. The antigen-loaded sensors were incubated in the diluted solutions to capture the whole IgG antibody for 300 s to record the association phase. Sensors were incubated in the kinetic buffer for 900 s to record the dissociation phase. The spin speed was 1000 rpm for all steps except the antigen loading step which was 400 rpm to control density of the antigen. The temperature of the performed assays was at 30° C. during the association and dissociation phases. The sensor data were baseline subtracted and further analyzed in GatorOne software (version 2.10) to determine the equilibrium dissociation constants (KD) of the antibodies by fitting the signals of the steady states to the 1:1 binding model.

[3] = target: T2, human CD8αα homodimer, recombinant …; assay: as above; remark: listed apart in the source
Experimental: as §1

EC50 [1] | Kd [2] | Kd [3] | Binder
2.69 nM | 5.15 nM | – | CBD1036-hIgG1-LALAPA (antibody, V domains shown, also called h1017-H3/L3 whole antibody) VH: QVQLVQSGAEVKKPGASVKISCKASRYTFTDYNLHWVRQAPGQGLEWIGFIYPYNGGTGYAQKFQGRATLTVDTSTSTAYMELSSLRSEDTAVYYCARDHRYNEGVSFDYWGQGTTLTVSS VL: DIQLTQSPSSLSASVGDRATITCRASESVDGFGNSFMNWYQQKPGKAPKLLIYLASNLESGVPSRFSGSGSRTDFTLTISSVQPEDFATYYCQQNNEDPYTFGQGTKLEIKR
– | – | 3 nM | CBD1049 (antibody, human IgG1, kappa, L234A L235A, V domains shown, also called h1017-H10/L5 whole antibody hIgG1-LALAPA) VH: QVQLVQSGAEVKKPGASVKVSCKASRYTFTDYNLHWVRQAPGQGLEWIGFIYPYNGGTGYAQKFQGRVTLTVDYSTSTAYMELSSLRSEDTAVYYCARDHRYNEGVSFDYWGQGTLVTVSS VL: EIVLTQSPGTLSLSPGERATLSCRASESVDGFGNSFMNWYQQKPGQAPRLLIYLASNLESGVPARFSGSGSGTDFTLTISRLEPEDFAVYYCQQNNEDPYTFGQGTKVEIKR
2.42 nM | 2.32 nM | – | CBD1037-hIgG1-LALAPA (antibody, V domains shown, also called h1017-H4/L2 whole antibody) VH: QVQLVQSGAEVKKPGASVKVSCKASRYTFTDYNLHWVRQAPGQGLEWMGFIYPYNGGTGYAQKFQGRVTMTVDYSTSTAYMELSSLRSEDTAVYYCARDHRYNEGVSFDYWGQGTTVTVSS VL: DIQLTQSPSSLSASVGDRATITCRASESVDGFGNSFMNWYQQKPGKAPKLLIYLASNLESGVPSRFSGSGSGTDFTLTISSVQPEDFATYYCQQNNEDPYTFGQGTKLEIKR
– | – | 6.41 nM | CBD1050 (antibody, human IgG1, kappa, L234A L235A, V domains shown, also called h1017-H10/L6 whole antibody hIgG1-LALAPA) VH: QVQLVQSGAEVKKPGASVKVSCKASRYTFTDYNLHWVRQAPGQGLEWIGFIYPYNGGTGYAQKFQGRVTLTVDYSTSTAYMELSSLRSEDTAVYYCARDHRYNEGVSFDYWGQGTLVTVSS VL: EIVLTQSPGTLSLSPGERATLSCRASESVDGFGNSFMNWYQQKPGQAPRLLIYLASNLESGVPARFSGSGSRTDFTLTISRLEPEDFAVYYCQQNNEDPYTFGQGTKVEIKR
2.57 nM | 4.74 nM | – | CBD1038-hIgG1-LALAPA (antibody, V domains shown, also called h1017-H4/L3 whole antibody) VH: QVQLVQSGAEVKKPGASVKVSCKASRYTFTDYNLHWVRQAPGQGLEWMGFIYPYNGGTGYAQKFQGRVTMTVDYSTSTAYMELSSLRSEDTAVYYCARDHRYNEGVSFDYWGQGTTVTVSS VL: DIQLTQSPSSLSASVGDRATITCRASESVDGFGNSFMNWYQQKPGKAPKLLIYLASNLESGVPSRFSGSGSRTDFTLTISSVQPEDFATYYCQQNNEDPYTFGQGTKLEIKR
